Article PMC12321301
Read-outs that look alike come from different tables or passages of the source.

B1: Tro6 (5'-thiol C6, HRP conjugate) (ssDNA)
DNA: CGCATGCCAAACGTTGCCTCATAGTTCCCTCCCCGTGTCC
B2: Tro4 (5'-biotin) (ssDNA)
DNA: CGTGCAGTACGCCAACCTTTCTCATGCGCTGCCCCTCTTA

What was measured:
[1] = target: T1, cardiac troponin I (cTnI) (UniProt P19429 2-210); assay: direct ELASA
[2] = target: T1, cardiac troponin I (cTnI); assay: direct ELASA; remark: listed apart in the source

T1 sequence (P19429 2-210): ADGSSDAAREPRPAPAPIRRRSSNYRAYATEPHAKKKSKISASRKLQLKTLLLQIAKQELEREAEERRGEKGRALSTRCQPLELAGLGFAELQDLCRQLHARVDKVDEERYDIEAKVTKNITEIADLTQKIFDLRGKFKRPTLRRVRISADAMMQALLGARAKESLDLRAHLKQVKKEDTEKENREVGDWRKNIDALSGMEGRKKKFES

Binder	binding result [1]	binding result [2]
B1	binds	
B2		binds
